{"source": "patent US20160244529A1", "about": "(ROTTAPHARM BIOTECH S R L, published 2016)", "key": {"human TrkB immunoadhesin": {"biological_target": "T1, human TrkB immunoadhesin (human; Camelus dromedarius, UniProt Q16620 32-430)", "T1 construct": "extracellular domain; also called hTrkB-Fc; TrkB immunoadhesins; not shown: Fc portion (immunoglobulin heavy chain constant region) of IgG2a camel antibody (Camelus dromedarius)", "T1 sequence (Q16620 32-430)": "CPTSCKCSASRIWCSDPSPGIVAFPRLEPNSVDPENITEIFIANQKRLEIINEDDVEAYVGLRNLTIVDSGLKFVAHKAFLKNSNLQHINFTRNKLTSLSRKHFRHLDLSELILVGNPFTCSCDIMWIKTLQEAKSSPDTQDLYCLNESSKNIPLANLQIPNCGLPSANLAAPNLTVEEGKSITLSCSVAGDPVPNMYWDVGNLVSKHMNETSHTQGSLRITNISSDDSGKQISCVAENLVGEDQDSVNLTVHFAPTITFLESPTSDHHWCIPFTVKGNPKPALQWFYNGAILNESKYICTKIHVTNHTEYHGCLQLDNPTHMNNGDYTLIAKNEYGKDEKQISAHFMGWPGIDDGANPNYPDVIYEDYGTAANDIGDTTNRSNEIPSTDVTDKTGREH", "test": "specificity ELISA, antigens coated at 2 µg/mL, scFv at 50 ug/mL (upper panel) and 5 ug/mL (lower panel), OD 450 nm", "procedure": "(§1) FIG. 3. Specificity ELISA of isolated anti-TrkA scFvs versus human TrkA immunoadhesin (hTrkA-Fc), human TrkB immunoadhesins (hTrkB-Fc), human TrkC immunoadhesins (hTrkC-Fc) and human p75 immunoadhesins (hp75-Fc). Human antigens were coated at 2 μg/mL. Anti-TrkA scFvs were used at 50 μg/mL (upper panel) and/or 5 μg/mL (lower panel). The mean absorbance at 450 nm of the experiments performed in duplicate wells is shown with SD indicated by the bars."}, "human p75 immunoadhesin": {"biological_target": "T2, human p75 immunoadhesin (human; Camelus dromedarius, UniProt P08138 29-250)", "T2 construct": "extracellular domain; also called hp75-Fc; p75NTR immunoadhesin; not shown: Fc portion (immunoglobulin heavy chain constant region) of IgG2a camel antibody (Camelus dromedarius)", "T2 sequence (looked up)": "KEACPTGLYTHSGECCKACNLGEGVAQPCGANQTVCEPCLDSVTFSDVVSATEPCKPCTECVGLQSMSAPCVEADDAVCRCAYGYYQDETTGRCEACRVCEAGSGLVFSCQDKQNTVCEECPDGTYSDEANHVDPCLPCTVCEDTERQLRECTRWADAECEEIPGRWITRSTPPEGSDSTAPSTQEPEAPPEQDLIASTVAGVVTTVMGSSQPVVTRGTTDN", "test": "specificity ELISA, antigens coated at 2 µg/mL, scFv at 50 ug/mL (upper panel) and 5 ug/mL (lower panel), OD 450 nm", "procedure": "as §1"}, "human TrkC immunoadhesin": {"biological_target": "T3, human TrkC immunoadhesin (human; Camelus dromedarius, UniProt Q16288 32-429)", "T3 construct": "extracellular domain; also called hTrkC-Fc; TrkC immunoadhesins; not shown: Fc portion (immunoglobulin heavy chain constant region) of IgG2a camel antibody (Camelus dromedarius)", "test": "specificity ELISA, antigens coated at 2 µg/mL, scFv at 50 ug/mL (upper panel) and 5 ug/mL (lower panel), OD 450 nm", "procedure": "as §1"}, "[1]": {"biological_target": "T4, human Ig1,2 TrkA (recombinant D4-D5 domain of human TrkA receptor) (human, UniProt P04629 191-392)", "T4 construct": "also called hTrkA Ig1,2; TrkA Ig1,2", "T4 chain": "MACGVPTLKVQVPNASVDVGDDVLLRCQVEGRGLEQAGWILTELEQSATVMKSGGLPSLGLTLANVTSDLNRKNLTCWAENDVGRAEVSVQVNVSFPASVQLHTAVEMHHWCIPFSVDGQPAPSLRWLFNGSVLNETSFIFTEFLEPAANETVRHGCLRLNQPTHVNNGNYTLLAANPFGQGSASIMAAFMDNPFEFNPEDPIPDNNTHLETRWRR", "test": "SPR (Biacore X-100); scFv immobilised on CM5 chip, human Ig1,2 TrkA injected", "procedure": "(§2) The antibodies were also shown to be specific for hTrkA and mTrkA by relative binding to the BIACore sensor chips coated with the appropriate antigen. Antibodies were immobilized by ammine coupling to Biosensor CM5 sensorchips (Pharmacia) according to the manufacturers instructions. Anti-TrkA scFv proteins were diluted at 20-50 μg/ml in suitable pre-concentration buffer (at least 2 pH unit below the pI of the scFv in order to get a net positive charge), chosen among the Acetate buffers. The scFvs were immobilized at 100 RU to get a low density immobilization. As binder, the recombinant protein consisting of D4-D5 domain of human and murine TrkA receptor (hTrkA Ig1,2 and mTrkA Ig1,2 respectively) were injected over the immobilized scFv with a contact time of 60 seconds and with a dissociation time of 400 seconds and the assay workflow placed 5 serial dilutions of the TrkA Ig1,2 (starting in the micromolar range and diluting 1:2 each time). The regeneration condition were mild (contact time 30 seconds, 10 mM Glycine pH2). On the basis of the resulting sensorgrams, the concentrations of TrkA Ig1,2 were adjusted to optimize, contact time, dissociation time and regeneration. Data were analysed by Bioevaluation Software (see results on Table II and Table III). The quality of the data fitting were checked by the value of Chi² and of the U-value.\n(§3) We have carried out surface plasmon resonance (SPR) analyses to determine the binding kinetics of a panel of isolated anti-TrkA scFvs (SEQ ID NOs: 1, 2, 3, 4, 5, 6, 7, 8, 9, 10, 11, 12, 13, 14, 15 and 16). The scFvs were immobilized on a CM5 chip followed by injections at various concentration of human and murine Ig 1,2 TrkA (SEQ ID NO: 78) and mouse Ig1,2 TrkA (SEQ ID NO: 79)."}, "[2]": {"biological_target": "T5, human TrkA receptor (native, on TF-1 cells) (human, UniProt P04629 33-796)", "T5 construct": "also called TF1 expressing TrkA receptor; TF-1 cell line expressing human TrkA receptor", "T5 sequence (P04629 33-796 limits assumed)": "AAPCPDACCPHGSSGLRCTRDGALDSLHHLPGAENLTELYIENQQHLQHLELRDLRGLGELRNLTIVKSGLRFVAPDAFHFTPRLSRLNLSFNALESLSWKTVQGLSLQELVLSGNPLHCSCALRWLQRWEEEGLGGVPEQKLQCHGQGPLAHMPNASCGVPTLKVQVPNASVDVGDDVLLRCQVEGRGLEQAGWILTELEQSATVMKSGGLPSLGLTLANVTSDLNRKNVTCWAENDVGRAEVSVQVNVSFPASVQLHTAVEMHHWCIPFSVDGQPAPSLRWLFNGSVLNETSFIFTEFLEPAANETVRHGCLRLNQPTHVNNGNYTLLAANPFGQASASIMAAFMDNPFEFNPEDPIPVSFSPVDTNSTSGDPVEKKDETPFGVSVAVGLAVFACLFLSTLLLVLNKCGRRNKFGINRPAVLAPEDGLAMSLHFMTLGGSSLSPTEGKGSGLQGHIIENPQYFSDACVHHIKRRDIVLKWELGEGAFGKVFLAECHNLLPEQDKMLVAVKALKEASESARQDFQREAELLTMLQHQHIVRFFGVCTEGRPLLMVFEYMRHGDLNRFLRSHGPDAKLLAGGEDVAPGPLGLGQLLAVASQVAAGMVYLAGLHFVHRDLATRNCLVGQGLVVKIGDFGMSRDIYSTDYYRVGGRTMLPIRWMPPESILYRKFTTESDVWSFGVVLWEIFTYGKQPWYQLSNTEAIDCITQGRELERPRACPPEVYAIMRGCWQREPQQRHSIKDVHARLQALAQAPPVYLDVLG", "test": "chip-based flow cytometry (Agilent Bioanalyzer 2100) on TF-1 cells expressing human TrkA; scFv at 5 µg/ml per paragraph 159", "procedure": "FIG. 5. FACS analysis performed with Bioanalyzer 2100. A cell fluid chip-based fluorescent cytometric assay that runs on Bioanalyzer 2100 (Agilent) for fast characterization of small population cell phenotypes was assessed. The assay determines the expression of specific cell surface markers. In this experiment, the specificity of scFvs on TF-1 cell line expressing human TrkA receptor was assessed. Six samples can be analyzed on each chip in one automated process. Results were in good agreement with conventional flow cytometry in quantisation.\n10⁶ cells/sample=tot: 6×10⁶ cells are first centrifuged at 350 g for 5 min at room temperature (RT) and wash with 12 ml of Staining Buffer (SB) at RT. The pellet was resuspended in 3 ml of SB at 4° C. and aliquot 0.5 ml of suspension in 1.5 ml conical tubes. Cells were centrifuged again at 350 g for 5 min at 4° C. and the pellet was resuspended in 1 ml HBSS at 4° C. 125 μl 16% p-formaldehyde (final conc 1.7%) was added into each tube and then the sample was incubated for 10 min at 4° C. on tube rotator. After 10 minutes, 75 μl of 10% detergent solution-Tween 20 (final conc 0.6%) was added and the samples were then incubated for 10 min at 4° C. on tube rotator. Samples were then washed once with FACS Buffer (0.8 ml/sample) at 4° C. and then centrifuged at 350 g for 5 min at 4° C. Cells were resuspended with 80 μl/sample of FACS Buffer. 20 μl of a 5× primary antibody solution were added (final concentration of scFvs is 5 μg/ml). After incubation for 1 hour at 4° C. on tube rotator samples were washed with FACS Buffer (0.5 ml/sample) at 4° C. and then centrifuged 5 min at 350 g at 4° C. Cells were resuspended with 80 μl/sample of FACS Buffer. 20 μl of a 5× secondary antibody solution were added. Final concentration of mouse anti-V5 antibody is 0.20 μg/ml. The samples were incubated for 1 hour at 4° C. on tube rotator. After incubation for 1 hour at 4° C. on tube rotator samples were washed with FACS Buffer (0.5 ml/sample) at 4° C. and then centrifuged 5 min at 350 g at 4° C. Cells were resuspended with 80 μl/sample of FACS Buffer. 20 μl of a 5× tertiary antibody solution were added. Final concentration of anti-mouse IgG-Cy5 is 4 μg/ml (1:250 diluted). The samples were incubated for 1 hour at 4° C. on tube rotator."}, "[3]": {"biological_target": "T6, mouse Ig1,2 TrkA (recombinant D4-D5 domain of murine TrkA receptor) (mouse, UniProt Q3UFB7 193-413)", "T6 construct": "also called mTrkA Ig1,2", "T6 sequence (Q3UFB7 other isoform, or with tags, fused parts or gaps limits assumed)": "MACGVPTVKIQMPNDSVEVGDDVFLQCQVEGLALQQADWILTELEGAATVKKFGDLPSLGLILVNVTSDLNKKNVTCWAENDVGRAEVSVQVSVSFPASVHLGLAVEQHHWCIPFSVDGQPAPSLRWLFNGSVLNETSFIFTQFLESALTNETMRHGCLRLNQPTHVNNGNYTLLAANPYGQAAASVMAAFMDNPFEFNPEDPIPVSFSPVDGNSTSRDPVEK", "test": "SPR (Biacore X-100); scFv immobilised on CM5 chip, mouse Ig1,2 TrkA injected", "procedure": "as §2, §3"}, "[4]": {"biological_target": "T5, human TrkA receptor (native, on TF-1 …)", "test": "cell-based or functional assay"}, "[5]": {"biological_target": "T6, mouse Ig1,2 TrkA (recombinant D4-D5 …)", "test": "SPR (Biacore X-100) kinetic analysis"}, "[6]": {"biological_target": "T4, human Ig1,2 TrkA (recombinant D4-D5 …)", "test": "SPR (Biacore X-100) kinetic analysis"}}, "note": "Several values for one entry are separate records, joined by “and”; a condition that tells them apart may be missing. Identical values can stand only once."}
{"binder": "anti-TrkA scFv CRB0088 (scFv, From hSPLINT_09 selection) scFv: QPVLTQSPPASASLGASVKLTCTLSSGHSSYAIAWHQQQPEKGPRYLMKVNSDGSHNKGDGIPDRFSGSRSGAERYLTISSLHSEDEADYYCQTWGAGGVVFGGGTKLTVLSGGSTSGSGKPGSGEGSSGTEVQLLESGGGLVQPGGSLRLSCAASGFTFSDHYMDWVRQAPGKGLEWVGRIRNKANSYTTEYAASVKGRFTISRDDSKKTLYLQMTSLKTDDTALYYCARDLGASDAFDLWGQGTMVTVSS", "values": [{"measurement": "binding result", "setting": "human TrkB immunoadhesin", "value": "no binding (tested: 50 ug/mL)"}, {"measurement": "binding result", "setting": "human p75 immunoadhesin", "value": "no binding (tested: 50 ug/mL)"}, {"measurement": "binding result", "setting": "human TrkC immunoadhesin", "value": "no binding (tested: 50 ug/mL)"}, {"measurement": "Kd", "setting": "[1]", "value": 1.16, "unit": "nM"}, {"measurement": "koff", "setting": "[1]", "value": "3.2e-06", "unit": "s⁻¹"}, {"measurement": "kon", "setting": "[1]", "value": 2760, "unit": "M⁻¹ s⁻¹"}, {"measurement": "binding result", "setting": "[2]", "value": "binds"}, {"measurement": "Kd", "setting": "[3]", "value": 38.5, "unit": "nM"}, {"measurement": "koff", "setting": "[3]", "value": 0.000131, "unit": "s⁻¹"}, {"measurement": "kon", "setting": "[3]", "value": 3410, "unit": "M⁻¹ s⁻¹"}]}
{"binder": "anti-TrkA scFv CRB0072 (scFv, From hSPLINT_09 selection) scFv: DIQMTQSPISLSATVGDRVTITCRASQSIGRYLNWYQQKPGKAPKLLIYGASSLESGVPSRFSGSGSGTVFTLTISGLQPEDFATYCCQQSHSTAWTFGQGTKVEIKSGGSTSGSGKPGSGEGSSGTEVQLVETGGGLVQPGSSLRLSCATSGFTFINYGVHWVRQPPGKGLEWVASIWYEGSNEKYADSVKGRFTISRDNSRYTLHLQLNSLRAEDTADYYCVRDRGTGDYRNSRFYYGMDVWGQGTTVTVSS", "values": [{"measurement": "binding result", "setting": "human TrkB immunoadhesin", "value": "no binding (tested: 50 ug/mL)"}, {"measurement": "binding result", "setting": "human p75 immunoadhesin", "value": "no binding (tested: 50 ug/mL)"}, {"measurement": "binding result", "setting": "human TrkC immunoadhesin", "value": "no binding (tested: 50 ug/mL)"}, {"measurement": "Kd", "setting": "[1]", "value": 2.04, "unit": "nM"}, {"measurement": "koff", "setting": "[1]", "value": "7.48e-06", "unit": "s⁻¹"}, {"measurement": "kon", "setting": "[1]", "value": 3680, "unit": "M⁻¹ s⁻¹"}, {"measurement": "binding result", "setting": "[2]", "value": "binds"}, {"measurement": "Kd", "setting": "[3]", "value": 17, "unit": "nM"}, {"measurement": "koff", "setting": "[3]", "value": "4.93e-05", "unit": "s⁻¹"}, {"measurement": "kon", "setting": "[3]", "value": 2910, "unit": "M⁻¹ s⁻¹"}]}
{"binder": "CRB0089_IgG4 (antibody, V domains shown, Whole human IgG4 made in CHO-S cells; also called mAb CRB0089_IgG4; anti-TrkA CRB0089_IgG4) VH: QVQLQESGPGLVKPSQTLSLTCAISGDSVSSNSAAWNWIRQSPSRGLEWLGRTFHRSRWYNEYPVSVRSRITINPDTSNNQFTLQLNSVTPDDTAVYYCARAPVAGLTFDIWGQGTMVTVSS VL: QTVVTQEPSVSGAPGQRVTISCTGSSSIIGAGYEVHWYQHLPGTAPKLLIYDSINRPSGVPDRFSGSKSGTSASLAITGLQAEDEADYYCQSSAIFGGGTKLTVL", "values": [{"measurement": "IC50 of inhibition of NGF-mediated TF1 cell proliferation (MTT assay)", "setting": "[4]", "value": "~43 nM and ~40 nM"}, {"measurement": "Kd", "setting": "[5]", "value": 27.6, "unit": "nM"}, {"measurement": "koff", "setting": "[5]", "value": 0.000136, "unit": "s⁻¹"}, {"measurement": "kon", "setting": "[5]", "value": 4950, "unit": "M⁻¹ s⁻¹"}, {"measurement": "Kd", "setting": "[6]", "value": 16.1, "unit": "nM"}, {"measurement": "koff", "setting": "[6]", "value": 0.000103, "unit": "s⁻¹"}, {"measurement": "kon", "setting": "[6]", "value": 6420, "unit": "M⁻¹ s⁻¹"}]}
